Measurements as given in patent US5156956A, “Transgultaminase” (Ajinomoto Co., Inc., priority 1987, dated 1992).

Columns and labels:
[1] = Measurement of BTGase activity (hydroxamate method); assay type: biochemical; settings: freeze dried product prepared in Example 1
Method: Measurement of the activity of BTGase is carried out by performing a reaction using benzyloxycarbonyl-L-glutaminyl glycine and hydroxylamine as substrates in the absence of Ca^2+, forming an iron complex with the resulting hydroxamic acid in the presence of trichloroacetic acid, measuring absorption at 525 nm and determining the amount of hydroxamic acid by a calibration curve to calculate the activity. The BTGase activity is measured by the method described below, unless otherwise indicated.
To 0.05 ml of an enzyme solution is added 0.5 ml of Reagent A and they are mixed with each other. After reacting at 37° C. for 30 minutes, Reagent B is added thereto to discontinue the reaction and form an Fe complex. Thereafter, absorbance is measured at 525 nm. As a control, absorbance is measured after reacting a previously thermally inactivated enzyme solution in a similar manner and a difference in absorbance between the control and the enzyme solution is measured. Separately, a calibration curve is prepared using L-glutamic acid γ-monohydroxamio acid instead of the enzyme solution, and the amount of hydroxamic acid produced is determined by the difference in absorbance described above. An enzyme activity which produces 1 μmol of hydroxamic acid per 1 minute is defined as 1 unit.

[2] = system: Prawn myosin; test: Gelation, test tube inversion method; assay type: biochemical; design: key: .smallcircle.: gelled; Δ: weakly gelled; x: remained as solution; settings: 5 ml, 3.6 units of BTGase, 35° C., 35 minutes at maximum, MTGase 0.1 U/mg, 37° C., 1 h
Method: 3) Prawn myosin was prepared as follows for use as a substrate for BTGase.
The shell of a fresh (live) prawn (body length of about 5 cm) was peeled off and the prawn flection muscle was taken out. After mincing, the mince was washed with ice water and homogenized under cooling in the presence of 0.1 mM DTT and 0.1 mM PMSF. By centrifugation, actomyosin was extracted and separated therefrom. By further ultracentrifugation at 10^5 ×g for 60 minutes, actin was removed to give a myosin-rich fraction. Further dilution precipitation and ultracentrifugation were repeated to give purified prawn myosin. […] By immersing in a water bath at 35° C., the reaction was initiated and carried out for 35 minutes at maximum.
For purposes of comparison, the results of gelation ability test with MTGase are also shown. The amount of MTGase added was 0.1 U per 1 mg of substrate protein.

B1: BTGase: microorganism-derived transglutaminase; in Examples 4-11 the freeze dried product prepared in Example 1 (S. mobaraense, i.e. BTG-1) (protein, UniProt P81453 77-407, looked up)
Protein-glutamine …: DSDDRVTPPAEPLDRMPDPYRPSYGRAETVVNNYIRKWQQVYSHRDGRKQQMTEEQREWLSYGCVGVTWVNSGQYPTNRLAFASFDEDRFKNELKNGRPRSGETRAEFEGRVAKESFDEEKGFQRAREVASVMNRALENAHDESAYLDNLKKELANGNDALRNEDARSPFYSALRNTPSFKERNGGNHDPSRMKAVIYSKHFWSGQDRSSSADKRKYGDPDAFRPAPGTGLVDMSRDRNIPRSPTSPGEGFVNFDYGWFGAQTEADADKTVWTHGNHYHAPNGSLGAMHVYESKFRNWSEGYSDFDRGAYVITFIPKSWNTAPDKVKQGWP
Which results are given for B1?
specific activity [1]: 2.50 Units/mg protein; Gelation, Prawn myosin 3.6% [2]: .smallcircle.
